No end group written: not given here. *: point of attachment. Biotin = O=C1N[C@H]2[C@H](CS[C@H]2CCCCC(=O)*)N1
Legend:
[1] = target: alpha-synuclein phosphorylated at serine 129 (human, UniProt P37840 1-140); assay: SPR (Biacore), antibody captured, p129-Syn injected
asyn_113-127_127A [2] = target: T1, asyn_113-127_127A (human); assay: Ala-scan peptide ELISA, row E, run 2
T1 construct: substitution is already in the entry; also called pep17
T1 peptide: Biotin-LEDMPVDPDNEAYEA

[3] = target: biotinylated human alpha-synuclein (human, UniProt P37840 1-140); assay: Ala-scan peptide ELISA, row E, run 2
asyn_113-127 = target: T2, asyn_113-127 (human); assay: Ala-scan peptide ELISA, row E, run 2
T2 construct: also called pep1
T2 peptide: Biotin-LEDMPVDPDNEAYEM

asyn_113-127_122A = target: T3, asyn_113-127_122A (human); assay: Ala-scan peptide ELISA, row E, run 2
T3 construct: substitution is already in the entry; also called pep11
T3 peptide: Biotin-LEDMPVDPDAEAYEM

asyn_113-127_120A = target: T4, asyn_113-127_120A (human); assay: Ala-scan peptide ELISA, row E, run 2
T4 construct: substitution is already in the entry; also called pep9
T4 peptide: Biotin-LEDMPVDADNEAYEM

asyn_113-127_118A = target: T5, asyn_113-127_118A (human); assay: Ala-scan peptide ELISA, row E, run 2
T5 construct: substitution is already in the entry; also called pep7
T5 peptide: Biotin-LEDMPADPDNEAYEM

asyn_113-127_126A = target: T6, asyn_113-127_126A (human); assay: Ala-scan peptide ELISA, row E, run 2
T6 construct: substitution is already in the entry; also called pep16
T6 peptide: Biotin-LEDMPVDPDNEAYAM

asyn_113-127_125A [4] = target: T7, asyn_113-127_125A (human); assay: Ala-scan peptide ELISA, row E, run 2
T7 construct: substitution is already in the entry; also called pep15
T7 peptide: Biotin-LEDMPVDPDNEAAEM

asyn_113-127_115A = target: T8, asyn_113-127_115A (human); assay: Ala-scan peptide ELISA, row E, run 2
T8 construct: substitution is already in the entry; also called pep4
T8 peptide: Biotin-LEAMPVDPDNEAYEM

asyn_113-127_124P [5] = target: T9, asyn_113-127_124P (human); assay: Ala-scan peptide ELISA, row E, run 2
T9 construct: substitution is already in the entry; also called pep14
T9 peptide: Biotin-LEDMPVDPDNEPYEM

asyn_113-127_124G [6] = target: T10, asyn_113-127_124G (human); assay: Ala-scan peptide ELISA, row E, run 2
T10 construct: substitution is already in the entry; also called pep13
T10 peptide: Biotin-LEDMPVDPDNEGYEM

asyn_113-127_114A [7] = target: T11, asyn_113-127_114A (human); assay: Ala-scan peptide ELISA, row E, run 2
T11 construct: substitution is already in the entry; also called pep3
T11 peptide: Biotin-LADMPVDPDNEAYEM

asyn_113-127_116A [8] = target: T12, asyn_113-127_116A (human); assay: Ala-scan peptide ELISA, row E, run 2
T12 construct: substitution is already in the entry; also called pep5
T12 peptide: Biotin-LEDAPVDPDNEAYEM

asyn_113-127_119A [9] = target: T13, asyn_113-127_119A (human); assay: Ala-scan peptide ELISA, row E, run 2
T13 construct: substitution is already in the entry; also called pep8
T13 peptide: Biotin-LEDMPVAPDNEAYEM

asyn_113-127_113A [10] = target: T14, asyn_113-127_113A (human); assay: Ala-scan peptide ELISA, row E, run 2
T14 construct: substitution is already in the entry; also called pep2
T14 peptide: Biotin-AEDMPVDPDNEAYEM

asyn_113-127_123A = target: T15, asyn_113-127_123A (human); assay: Ala-scan peptide ELISA, row E, run 2
T15 construct: substitution is already in the entry; also called pep12
T15 peptide: Biotin-LEDMPVDPDNAAYEM

asyn_113-127_117A = target: T16, asyn_113-127_117A (human); assay: Ala-scan peptide ELISA, row E, run 2
T16 construct: substitution is already in the entry; also called pep6
T16 peptide: Biotin-LEDMAVDPDNEAYEM

asyn_113-127_121A [11] = target: T17, asyn_113-127_121A (human); assay: Ala-scan peptide ELISA, row E, run 2
T17 construct: substitution is already in the entry; also called pep10
T17 peptide: Biotin-LEDMPVDPANEAYEM

asyn_113-127_127A [12] = target: T1, asyn_113-127_127A; assay: Ala-scan peptide ELISA, row G, run 2
asyn_113-127_125A [13] = target: T7, asyn_113-127_125A; assay: Ala-scan peptide ELISA, row G, run 2
asyn_113-127_124P [14] = target: T9, asyn_113-127_124P; assay: Ala-scan peptide ELISA, row G, run 2
asyn_113-127_124G [15] = target: T10, asyn_113-127_124G; assay: Ala-scan peptide ELISA, row G, run 2
asyn_113-127_114A [16] = target: T11, asyn_113-127_114A; assay: Ala-scan peptide ELISA, row G, run 2
asyn_113-127_116A [17] = target: T12, asyn_113-127_116A; assay: Ala-scan peptide ELISA, row G, run 2
asyn_113-127_119A [18] = target: T13, asyn_113-127_119A; assay: Ala-scan peptide ELISA, row G, run 2
asyn_113-127_113A [19] = target: T14, asyn_113-127_113A; assay: Ala-scan peptide ELISA, row G, run 2
asyn_113-127_121A [20] = target: T17, asyn_113-127_121A; assay: Ala-scan peptide ELISA, row G, run 2

Kd [1]: 6.14 nM | A450 (asyn_113-127_127A [2]): 0.279 OD | A450 [3]: 0.531 OD | A450 (asyn_113-127): 0.242 OD | A450 (asyn_113-127_122A): 0.05 OD | A450 (asyn_113-127_120A): 0.15 OD | A450 (asyn_113-127_118A): 0.256 OD | A450 (asyn_113-127_126A): 0.272 OD | A450 (asyn_113-127_125A [4]): 0.049 OD | A450 (asyn_113-127_115A): 0.145 OD | A450 (asyn_113-127_124P [5]): 0.047 OD | A450 (asyn_113-127_124G [6]): 0.215 OD | A450 (asyn_113-127_114A [7]): 0.243 OD | A450 (asyn_113-127_116A [8]): 0.247 OD | A450 (asyn_113-127_119A [9]): 0.045 OD | A450 (asyn_113-127_113A [10]): 0.237 OD | A450 (asyn_113-127_123A): 0.259 OD | A450 (asyn_113-127_117A): 0.267 OD | A450 (asyn_113-127_121A [11]): 0.223 OD | A450 (asyn_113-127_127A [12]): 0.092 OD | A450 (asyn_113-127_125A [13]): 0.049 OD | A450 (asyn_113-127_124P [14]): 0.048 OD | A450 (asyn_113-127_124G [15]): 0.095 OD | A450 (asyn_113-127_114A [16]): 0.093 OD | A450 (asyn_113-127_116A [17]): 0.101 OD | A450 (asyn_113-127_119A [18]): 0.05 OD | A450 (asyn_113-127_113A [19]): 0.095 OD | A450 (asyn_113-127_121A [20]): 0.097 OD
B1: 20H4 (antibody, rat IgG2b, V domains shown)
VH: AVQLVESGGGLVQPKESLKISCAASGFTFSNAAMYWVRQAPGKGLELLARIRTKPNNYATYHADSVKGRFTISRDDSQSMVYLHMGNLKTEDTAMYYCTADMATGDYWGPGVMVTVSS
VL: DIQMTQSPPVLSVSVGDRVTLSCKASQNINKNLDWYQQKHGEAPKPLIYSTNNLQTGVPSRFSGSGSGTDYTLTISSLQPEDVATYYCYQYKSAWTFGGGTKLELR
notes: also called clone 20H4; rat 20H4

Reference: patent US20230074436A1 (DENALI THERAPEUTICS, published 2023)
